In patent publication US12269859B2, “Synthetic immune receptors and methods of use thereof” (Angeles Therapeutics, Inc., priority 2016, dated 2025):

Test system: target antigen-expressing cell line
Test: Jurkat NFAT-GFP assay, coculture with target cell lines expressing the respective target antigen (summary Table 10A)
Type: cell-based, human
Parameters: key: The signs +/−, +, 2+ etc. after the name of the cell lines indicate the relative degree of positivity on the Jurkat-NFAT-GFP assay as measured by the % GFP positive cells; +: relative degree of positivity on the Jurkat-NFAT-GFP assay as measured by the % GFP positive cells; 2+: relative degree of positivity on the Jurkat-NFAT-GFP assay as measured by the % GFP positive cells
Conditions: for NFAT-GFP ASSAY Positive Cell lines: L428: SIR-expressing Jurkat-NFAT-GFP cells cocultured with L428
Procedure, shortened: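 Coculture of SIR-bearing Jurkat NFAT-GFP reporters with target cells, ~1:2 E:T, ~4–18 h. FACS quantified % GFP+ cells, ranked semi-quantitatively against parental Jurkat-NFAT-GFP.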

B1: 012517-J12 (protein)
chain: MALPVTALLLPLALLLHAARPLEGKPIPNPLLGLDSTGSGEDLKNVFPPEVAVFEPSKAEIAHTQKATLVCLATGFYPDHVELSWWVNGKEVHSGVCTDPQPLKEQPALNDSRYCLSSRLRVSATFWQNPRNHFRCQVQFYGLSENDEWTQDRAKPVTQIVSAEAWGRADCGITSASYHQGVLSATILYEILLGKATLYAVLVSALVLMAMVKRKDSRGRAKRSGSGATNFSLLKQAGDVEENPGPTSMALPVTALLLPLALLLHAARPDIQMTQSPASLSASLGETVTIECRTSKDIYSNLAWFQQEPGNSPQLLIYDASNLADGVPSRFSGSGSGTQYSLQINNLQSEDVASYFCHQYNNYPYTFGTGTKLELKGGGGSGGGGSGGGGSQVQLQESGPTLVNPGDSVKMSCKASGYTFTDHIIHWVKQSHGKSLEWIGYINPYSGGANYNGKFKSKATLTIDKSSSTAYMEFSRLTSGDSAIYYCALNYGSYYAMDAWGQGTSVTVSSTREQKLISEEDGSGIQNPDPAVYQLRDSKSSDKSVCLFTDFDSQTNVSQSKDSDVYITDKCVLDMRSMDFKSNSAVAWSNKSDFACANAFNNSIIPEDTFFPSSDVPCDVKLVEKSFETDTNLNFQNLSVIGFRILLLKVAGFNLLMTLRLWSSRAKRSGSGVKQTLNFDLLKLAGDVESNPGPSRGHMTEYKPTVRLATRDDVPRAVRTLAAAFADYPATRHTVDPDRHIERVTELQELFLTRVGLDIGKVWVADDGAAVAVWTTPESVEAGAVFAEIGPRMAELSGSRLAAQQQMEGLLAPHRPKEPAWFLATVGVSPDHQGKGLGSAVVLPGVEAAERAGVPAFLETSAPRNLPFYERLGFTVTADVEVPEGPRTWCMTRKPGA
- NFAT-GFP ASSAY Positive Cell lines: L428 (relative % GFP positive cells): L428 (2+)

B2: 012517-M12 (protein)
chain: MALPVTALLLPLALLLHAARPLEGKPIPNPLLGLDSTGSGEDLKNVFPPEVAVFEPSKAEIAHTQKATLVCLATGFYPDHVELSWWVNGKEVHSGVCTDPQPLKEQPALNDSRYCLSSRLRVSATFWQNPRNHFRCQVQFYGLSENDEWTQDRAKPVTQIVSAEAWGRADCGITSASYHQGVLSATILYEILLGKATLYAVLVSALVLMAMVKRKDSRGRAKRSGSGATNFSLLKQAGDVEENPGPTSMALPVTALLLPLALLLHAARPDVLMTQTPVSLPVSLGGQVSISCRSSQSLVHSDGDTYLHWYLQKPGQSPQLLIYRVSNRFSGVPDRFSGSGSGTDFTLKISRVEPEDLGLYYCLQTTHFPPWTFGGGTKLEMKGGGGSGGGGSGGGGSQVQLQQSGPELRRPGSSVRLSCKASGYRIKDFLIHWIKNRPEHGLEWIGWIDPEDGETKYAQKFQTKATLTADTSSNTAYMQLSSLTSEDTATYFCARWGDVYYGLMRGHVMDAWGQGTSVTVSSTREQKLISEEDGSGIQNPDPAVYQLRDSKSSDKSVCLFTDFDSQTNVSQSKDSDVYITDKCVLDMRSMDFKSNSAVAWSNKSDFACANAFNNSIIPEDTFFPSSDVPCDVKLVEKSFETDTNLNFQNLSVIGFRILLLKVAGFNLLMTLRLWSSRAKRSGSGVKQTLNFDLLKLAGDVESNPGPSRGHMTEYKPTVRLATRDDVPRAVRTLAAAFADYPATRHTVDPDRHIERVTELQELFLTRVGLDIGKVWVADDGAAVAVWTTPESVEAGAVFAEIGPRMAELSGSRLAAQQQMEGLLAPHRPKEPAWFLATVGVSPDHQGKGLGSAVVLPGVEAAERAGVPAFLETSAPRNLPFYERLGFTVTADVEVPEGPRTWCMTRKPGA
- NFAT-GFP ASSAY Positive Cell lines: L428 (relative % GFP positive cells): L428 (+)

B3: 012517-G12 (protein)
chain: MALPVTALLLPLALLLHAARPLEGKPIPNPLLGLDSTGSGEDLKNVFPPEVAVFEPSKAEIAHTQKATLVCLATGFYPDHVELSWWVNGKEVHSGVCTDPQPLKEQPALNDSRYCLSSRLRVSATFWQNPRNHFRCQVQFYGLSENDEWTQDRAKPVTQIVSAEAWGRADCGITSASYHQGVLSATILYEILLGKATLYAVLVSALVLMAMVKRKDSRGRAKRSGSGATNFSLLKQAGDVEENPGPTSMALPVTALLLPLALLLHAARPDFVMTQSPDSLAVSLGERVTMSCKSSQSLLNSGNQKNYLTWYQQKPGQPPKLLIYWASTRESGVPDRFSGSGSGTDFTLTISSLQAEDVAVYYCQNDYSYPYTFGQGTKLEIKGGGGSGGGGSGGGGSQVQLVQSGAELKKPGASVKVSCKASGYTFTDYYMKWVRQAPGQGLEWIGDIIPSNGATFYNQKFKGRVTITVDKSTSTAYMELSSLRSEDTAVYYCARSHLLRASWFAYWGQGTLVTVSSTREQKLISEEDGSGIQNPDPAVYQLRDSKSSDKSVCLFTDFDSQTNVSQSKDSDVYITDKCVLDMRSMDFKSNSAVAWSNKSDFACANAFNNSIIPEDTFFPSSDVPCDVKLVEKSFETDTNLNFQNLSVIGFRILLLKVAGFNLLMTLRLWSSRAKRSGSGVKQTLNFDLLKLAGDVESNPGPSRGHMTEYKPTVRLATRDDVPRAVRTLAAAFADYPATRHTVDPDRHIERVTELQELFLTRVGLDIGKVWVADDGAAVAVWTTPESVEAGAVFAEIGPRMAELSGSRLAAQQQMEGLLAPHRPKEPAWFLATVGVSPDHQGKGLGSAVVLPGVEAAERAGVPAFLETSAPRNLPFYERLGFTVTADVEVPEGPRTWCMTRKPGA
- NFAT-GFP ASSAY Positive Cell lines: L428 (relative % GFP positive cells): L428 (+/−)

B4: 111215-K06 (protein)
chain: MDWIWRILFLVGAATGAHSFEVQLVESGGGSVQAGGSLRLSCTTSGRALNMYVMGWFRQAPGNEREFVAATSSSGGSTSYPDSVKGRFTISRDNAKNTVYLQMNSLKPEDTAAYRCAASPYVSTPTMNILEEYRYWGLGTQVTVSSLEGKPIPNPLLGLDSTGSGEDLKNVFPPEVAVFEPSKAEIAHTQKATLVCLATGFYPDHVELSWWVNGKEVHSGVCTDPQPLKEQPALNDSRYCLSSRLRVSATFWQNPRNHFRCQVQFYGLSENDEWTQDRAKPVTQIVSAEAWGRADCGITSASYHQGVLSATILYEILLGKATLYAVLVSALVLMAMVKRKDSRGRAKRSGSGATNFSLLKQAGDVEENPGPTSMDWIWRILFLVGAATGAHSFEVQLVESGGGLVQAGGSLRLSCAASGSIFSGNVMGWYRRQAPGKEREWVAAIASGGSIYYRDSVKGRFTISRDNAKNTVYLQMNSLKPEDTAVYYCNSHPPTLPYWGLGTQVTVSSTREQKLISEEDGSGIQNPDPAVYQLRDSKSSDKSVCLFTDFDSQTNVSQSKDSDVYITDKCVLDMRSMDFKSNSAVAWSNKSDFACANAFNNSIIPEDTFFPSSDVPCDVKLVEKSFETDTNLNFQNLSVIGFRILLLKVAGFNLLMTLRLWSSRAKRSGSGVKQTLNFDLLKLAGDVESNPGPSRGHMTEYKPTVRLATRDDVPRAVRTLAAAFADYPATRHTVDPDRHIERVTELQELFLTRVGLDIGKVWVADDGAAVAVWTTPESVEAGAVFAEIGPRMAELSGSRLAAQQQMEGLLAPHRPKEPAWFLATVGVSPDHQGKGLGSAVVLPGVEAAERAGVPAFLETSAPRNLPFYERLGFTVTADVEVPEGPRTWCMTRKPGA
modifications: Synthetic Immune Receptor (SIR)
- NFAT-GFP ASSAY Positive Cell lines: Bv173 (SIR-expressing Jurkat-NFAT-GFP cells cocultured with Bv173, relative % GFP positive cells): Bv173 (+), THP1
- NFAT-GFP ASSAY Positive Cell lines: THP1 (SIR-expressing Jurkat-NFAT-GFP cells cocultured with THP1, relative % GFP positive cells): (+),

B5: 031517-T06 (protein)
chain: MALPVTALLLPLALLLHAARPLEGKPIPNPLLGLDSTGSGEDLKNVFPPEVAVFEPSKAEIAHTQKATLVCLATGFYPDHVELSWWVNGKEVHSGVCTDPQPLKEQPALNDSRYCLSSRLRVSATFWQNPRNHFRCQVQFYGLSENDEWTQDRAKPVTQIVSAEAWGRADCGITSASYHQGVLSATILYEILLGKATLYAVLVSALVLMAMVKRKDSRGRAKRSGSGATNFSLLKQAGDVEENPGPTSMALPVTALLLPLALLLHAARPDIVLTQSPATLSLSPGDRATLSCRASESVTILGSHLIYWYQQKPGQAPRLLIQLASNVQTGIPARFSGSGSRTDFTLTISSLEPEDFAVYYCLQSRTIPRTFGQGTKLEIKRGGGGSGGGGSGGGGSQVQLVQSGSELKKPGESVKISCKASGYTFTHYSMNWVRQAPGQGLEWMGRINTETGEPLYADDFKGRFVFSLDTSASTAYLQISSLKAEDTAVYYCSNDYLYSLDYWGQGTLVTVSSTREQKLISEEDGSGIQNPDPAVYQLRDSKSSDKSVCLFTDFDSQTNVSQSKDSDVYITDKCVLDMRSMDFKSNSAVAWSNKSDFACANAFNNSIIPEDTFFPSSDVPCDVKLVEKSFETDTNLNFQNLSVIGFRILLLKVAGFNLLMTLRLWSSRAKRSGSGVKQTLNFDLLKLAGDVESNPGPSRGHMTEYKPTVRLATRDDVPRAVRTLAAAFADYPATRHTVDPDRHIERVTELQELFLTRVGLDIGKVWVADDGAAVAVWTTPESVEAGAVFAEIGPRMAELSGSRLAAQQQMEGLLAPHRPKEPAWFLATVGVSPDHQGKGLGSAVVLPGVEAAERAGVPAFLETSAPRNLPFYERLGFTVTADVEVPEGPRTWCMTRKPGA
- NFAT-GFP ASSAY Positive Cell lines: L363 (SIR-expressing Jurkat-NFAT-GFP cells cocultured with L363, relative % GFP positive cells): L363 (+/−), U266
- NFAT-GFP ASSAY Positive Cell lines: U266 (SIR-expressing Jurkat-NFAT-GFP cells cocultured with U266, relative % GFP positive cells): (+/−)

B6: 083116-F05 (protein)
chain: MALPVTALLLPLALLLHAARPLEGKPIPNPLLGLDSTGSGEDLKNVFPPEVAVFEPSKAEIAHTQKATLVCLATGFYPDHVELSWWVNGKEVHSGVCTDPQPLKEQPALNDSRYCLSSRLRVSATFWQNPRNHFRCQVQFYGLSENDEWTQDRAKPVTQIVSAEAWGRADCGITSASYHQGVLSATILYEILLGKATLYAVLVSALVLMAMVKRKDSRGRAKRSGSGATNFSLLKQAGDVEENPGPTSMALPVTALLLPLALLLHAARPDIQMTQSTSSLSASLGDRVTISCSASQGINNYLNWYQQKPDGTVELLIYYTSTLQSGVPSRFSGSGSGTDYSLTISNLEPEDIGTYYCQQYSKLPRTFGGGTKLEIKGGGGSGGGGSGGGGSQVQLQQSGSELMMPGASVKISCKATGYTFSNYWIEWVKQRPGHGLEWIGEILPGTGRTIYNEKFKGKATFTADISSNTVQMQLSSLTSEDSAVYYCARRDYYGNFYYAMDYWGQGTSVTVSSTREQKLISEEDLGSGTPFPSLAPPIMLLVDGKQQMVVVCLVLDVAPPGLDSPIWFSAGNGSALDAFTYGPSPATDGTWTNLAHLSLPSEELASWEPLVCHTGPGAEGHSRSTQPMHLSGEASTARTCPQEPLRGTPGGALWLGVLRLLLFKLLLFDLLLTCSCLCDPAGPLPSPATTTRLRALGSHRLHPATETGGREATSSPRPQPRDRRWGDTPPGRKPGSPVRAKRSGSGVKQTLNFDLLKLAGDVESNPGPSRSRGHMTEYKPTVRLATRDDVPRAVRTLAAAFADYPATRHTVDPDRHIERVTELQELFLTRVGLDIGKVWVADDGAAVAVWTTPESVEAGAVFAEIGPRMAELSGSRLAAQQQMEGLLAPHRPKEPAWFLATVGVSPDHQGKGLGSAVVLPGVEAAERAGVPAFLETSAPRNLPFYERLGFTVTADVEVPEGPRTWCMTRKPGA
modifications: Polynucleotide encoding a Synthetic Immune Receptor (SIR)
- NFAT-GFP ASSAY Positive Cell lines (coculture with U266 cells): U266 (+/−)
